Measured values reported in the supplement of paper PMC7877785.
± gives the uncertainty stated by the source.

Assay: self-splicing fitness, log relative to wild type (ln ratio); higher = more splicing; Tetrahymena group I intron in knt gene, E. coli kanamycin selection, DiMSum; sequences stand for … in CUCUCU…GGAGGGAAAAGUUAUCAGGCAUGCACCUGGUAGCUAGUCUUUAAACCAAUAGAUUGCAUCGGUUUAAAAGGCAAGACCGUCAAAUUGCGGGAAAGGGGUCAACAGCCGUUCAGUACCAAGUCUCAGGGGAAACUUUGAGAUGGCCUUGCAAAGGGUAUGGUAAUAAGCUGACGGACAUGGUCCUAACCACGCAGCCAAGUCCUAAGUCAACAGAUCUUCUGUUGAUAUGGAUGCAGUUCACAGACUAAAUGUCGGUCGGGGAAGAUGUAUUCUUCUCAUAAGAUAUAGUCGGACCUCUCCUUAAUGGGAGCUAGCGGAUGAAGUGAUGCAACACUGGAGCCGCUGGGAACUAAUUUGUAUGCGAAAGUAUAUUGAUUAGUUUUGGAGUACUCGUGGUCG
Method in brief: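 Fitness was computed with DiMSum as the error-weighted combination of replicate fold changes, kanamycin versus none, each normalised to wild type. The library randomised all eight intron nucleotides of the P1ex region, with the intron placed in the knt kanamycin-resistance gene on pET-22b(+) in E. coli BL21(DE3). Six replicate transformations were grown overnight at 37°C or 30°C on LB agar with or without 25 μg/mL kanamycin, plus 100 μg/mL carbenicillin, 50 μM IPTG and 0.2% rhamnose. Pooled colonies were amplicon-sequenced on an Illumina HiSeq 2500.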

Row | Sequence | self-splicing fitness (ln) (30 °C) | self-splicing fitness (ln) (37 °C)
1 | UCAUAGCAAUAUUACGGCGG | -0.555 ± 0.059 | 0.417 ± 0.074
2 | ACAUAGCAAUAUUACGACCG | -0.782 ± 0.098 | -0.154 ± 0.14
3 | GGGCAGCAAUAUUACGCUGG | -3.14 ± 0.14 | -2.53 ± 0.16
4 | UCCUAGCAAUAUUACGUUGG | -3.74 ± 0.27 | -2.35 ± 0.2
5 | UCCCAGCAAUAUUACGAUUA | -1.71 ± 0.12 | -1.36 ± 0.14
6 | CAUUAGCAAUAUUACGCAAC | -2.14 ± 0.46 | -2.51 ± 0.3
7 | UAGCAGCAAUAUUACGGAAA | -1.82 ± 0.17 | -1.81 ± 0.29
8 | ACAAAGCAAUAUUACGUAUC | -2.27 ± 0.072 | -1.69 ± 0.099
9 | ACGAAGCAAUAUUACGAAUC | -3.29 ± 0.2 | -2.9 ± 0.25
10 | UCUCAGCAAUAUUACGGAAG | -1.82 ± 0.18 | -2.93 ± 0.3
11 | UUAUAGCAAUAUUACGUGUC | -4.44 ± 0.36 | -2.71 ± 0.26
12 | AGACAGCAAUAUUACGAUUG | -2.94 ± 0.16 | -3.15 ± 0.28
13 | GAUCAGCAAUAUUACGGUCU | -3.56 ± 0.21 | -1.9 ± 0.2
14 | UCCAAGCAAUAUUACGUGCA | -0.24 ± 0.083 | 0.425 ± 0.11
15 | GAGUAGCAAUAUUACGUCCU | 0.0223 ± 0.087 | 0.18 ± 0.15
16 | UACAAGCAAUAUUACGUUCU | -1.28 ± 0.12 | -0.681 ± 0.12
17 | AUAAAGCAAUAUUACGAUCC | -1.21 ± 0.2 | -0.716 ± 0.22
18 | CGCUAGCAAUAUUACGAGGG | -2.59 ± 0.11 | -2.44 ± 0.17
19 | UUUUAGCAAUAUUACGCUCG | -0.861 ± 0.14 | -0.128 ± 0.16
20 | AUAGAGCAAUAUUACGAAGA | -1.28 ± 0.38 | 
21 | CUUAAGCAAUAUUACGCAUC |  | -0.617 ± 0.29
22 | GGUAAGCAAUAUUACGAACA | -0.0165 ± 0.19 | -0.383 ± 0.18
23 | AGUUAGCAAUAUUACGCGCU | -3.13 ± 0.21 | -2.4 ± 0.31
24 | AAAGAGCAAUAUUACGGUGC | -3.49 ± 0.17 | -1.54 ± 0.15
25 | CAUCAGCAAUAUUACGGCCU | -3.29 ± 0.16 | -2.15 ± 0.16

Row | Sequence | self-splicing fitness (ln) (30 °C) | self-splicing fitness (ln) (37 °C)
26 | UUUGAGCAAUAUUACGGAGU | -2.49 ± 0.28 | 
27 | GUACAGCAAUAUUACGGAUG | -2.79 ± 0.2 | -1.8 ± 0.17
28 | UGUAAGCAAUAUUACGGCUU | -1.01 ± 0.12 | -1.15 ± 0.15
29 | AGAGAGCAAUAUUACGGUAC |  | -2.12 ± 0.27
30 | UCCCAGCAAUAUUACGUUCG | -3.65 ± 0.2 | -2.96 ± 0.27
31 | GUGCAGCAAUAUUACGAAUC | -1.28 ± 0.17 | -0.491 ± 0.18
32 | CUAGAGCAAUAUUACGCGCU | -3.47 ± 0.23 | -2.19 ± 0.27
33 | UAUUAGCAAUAUUACGGGAG | -3.18 ± 0.16 | -2.16 ± 0.12
34 | GGUUAGCAAUAUUACGGCCG | -0.999 ± 0.19 | -0.019 ± 0.25
35 | CGAUAGCAAUAUUACGGACG | -1 ± 0.085 | -0.734 ± 0.11
36 | AAUUAGCAAUAUUACGUUCG | -1.16 ± 0.12 | -0.728 ± 0.18
37 | GGACAGCAAUAUUACGUCAA | -0.0403 ± 0.063 | 0.0855 ± 0.085
38 | UUCGAGCAAUAUUACGUGUU | -4.05 ± 0.25 | -1.72 ± 0.18
39 | AAGGAGCAAUAUUACGAGAU |  | -2.41 ± 0.24
40 | ACCUAGCAAUAUUACGACAG | -2 ± 0.089 | -1.34 ± 0.12
41 | GAAGAGCAAUAUUACGAAGU | -3.98 ± 0.42 | -2.85 ± 0.3
42 | CCUAAGCAAUAUUACGAUUU | -3.8 ± 0.25 | -0.794 ± 0.23
43 | CAUGAGCAAUAUUACGCGUC |  | -2.76 ± 0.31
44 | AUGAAGCAAUAUUACGAAUA | -1.17 ± 0.11 | -0.537 ± 0.17
45 | UCUUAGCAAUAUUACGACAU | -3.836 ± 0.034 | -2.41 ± 0.04
46 | CCUGAGCAAUAUUACGGUGG | -3.67 ± 0.37 | -1.4 ± 0.2
47 | CGACAGCAAUAUUACGCAUG | -1.37 ± 0.075 | -0.351 ± 0.074
48 | CAGGAGCAAUAUUACGGCUA | -2.6 ± 0.19 | -1.34 ± 0.16
49 | UUAGAGCAAUAUUACGUUGG | -1.89 ± 0.1 | -1.59 ± 0.14
50 | UUGCAGCAAUAUUACGCAGU |  | -2.71 ± 0.39

Row | Sequence | self-splicing fitness (ln) (30 °C) | self-splicing fitness (ln) (37 °C)
51 | UAAAAGCAAUAUUACGUCGC | -3.18 ± 0.24 | -2.44 ± 0.36
52 | AGAGAGCAAUAUUACGAUUA | -2.43 ± 0.25 | -2.57 ± 0.32
53 | UACGAGCAAUAUUACGCGGC | -3.65 ± 0.37 | -2.28 ± 0.28
54 | GGGGAGCAAUAUUACGCCUG | -2.33 ± 0.15 | -0.491 ± 0.13
55 | UCCAAGCAAUAUUACGCGAG | -4.03 ± 0.24 | -2.93 ± 0.27
56 | AUCAAGCAAUAUUACGCCAA | -1.99 ± 0.16 | -0.947 ± 0.13
57 | UUAAAGCAAUAUUACGGGUG | 0.148 ± 0.069 | 0.271 ± 0.098
58 | CUAUAGCAAUAUUACGUCCU | -3.39 ± 0.22 | -2.7 ± 0.29
59 | UUGGAGCAAUAUUACGGAGG | -2.92 ± 0.24 | -2.01 ± 0.36
60 | AAUAAGCAAUAUUACGUUGG | -2.74 ± 0.28 | -3 ± 0.38
61 | GCUUAGCAAUAUUACGUGGA | -2.06 ± 0.13 | -0.531 ± 0.11
62 | CUCUAGCAAUAUUACGAAGU | -3.44 ± 0.21 | -4.77 ± 0.23
63 | CGGCAGCAAUAUUACGGAAU | -5.35 ± 0.41 | -1.42 ± 0.13
64 | UCAAAGCAAUAUUACGACCC | -3.88 ± 0.35 | -2.34 ± 0.39
65 | GGGAAGCAAUAUUACGGAUU | -0.965 ± 0.07 | -0.737 ± 0.1
66 | AAAUAGCAAUAUUACGUCUC | -2.14 ± 0.11 | -1.15 ± 0.14
67 | CUUCAGCAAUAUUACGCACG | -1.02 ± 0.085 | -0.456 ± 0.13
68 | GAGCAGCAAUAUUACGACUC | -2.56 ± 0.19 | 0.053 ± 0.17
69 | UCGUAGCAAUAUUACGCUUG | -2.53 ± 0.17 | -0.409 ± 0.14
70 | AUGGAGCAAUAUUACGUCAG | -2.47 ± 0.32 | -1.41 ± 0.44
71 | UCAAAGCAAUAUUACGCGAG | -0.91 ± 0.12 | -0.54 ± 0.14
72 | GCAUAGCAAUAUUACGACUA | -0.161 ± 0.23 | 0.00165 ± 0.2
73 | UCAAAGCAAUAUUACGGUUU | -3.06 ± 0.21 | -3 ± 0.27
74 | CAACAGCAAUAUUACGCCGA | -2.35 ± 0.18 | -1.76 ± 0.17
75 | AUUUAGCAAUAUUACGAUUG | -2.72 ± 0.21 | -2.05 ± 0.27

Row | Sequence | self-splicing fitness (ln) (30 °C) | self-splicing fitness (ln) (37 °C)
76 | AUCAAGCAAUAUUACGACAC | -1.45 ± 0.079 | -0.324 ± 0.11
77 | CGAUAGCAAUAUUACGCCGC | -3.37 ± 0.37 | -1.3 ± 0.47
78 | ACUUAGCAAUAUUACGAGGC | -3.25 ± 0.5 | 
79 | GUUAAGCAAUAUUACGUGCC | -1.39 ± 0.25 | -0.253 ± 0.36
80 | GUGCAGCAAUAUUACGAAUA | -1.79 ± 0.14 | -1.07 ± 0.17
81 | AGUGAGCAAUAUUACGAGAA | -1.8 ± 0.48 | 
82 | GUAAAGCAAUAUUACGCCAC |  | -1.86 ± 0.24
83 | GGCUAGCAAUAUUACGGUCC | -4.11 ± 0.33 | -2.97 ± 0.28
84 | GCAUAGCAAUAUUACGAGUC | -2.44 ± 0.12 | -2.7 ± 0.17
85 | UCUUAGCAAUAUUACGAACA | -0.762 ± 0.13 | -1.04 ± 0.14
86 | CUGAAGCAAUAUUACGUUGU | -4.42 ± 0.13 | -2.28 ± 0.14
87 | CUUUAGCAAUAUUACGUCGG | -1.79 ± 0.11 | -1.25 ± 0.12
88 | CGUUAGCAAUAUUACGAUCC | -1.74 ± 0.19 | -0.851 ± 0.21
89 | UGACAGCAAUAUUACGUGAG | -0.267 ± 0.028 | -0.365 ± 0.046
90 | CUUGAGCAAUAUUACGAGCA | -2.65 ± 0.41 | -3.07 ± 0.33
91 | UACGAGCAAUAUUACGCGCA | -1.42 ± 0.19 | -1.03 ± 0.17
92 | UGCAAGCAAUAUUACGGAAG | -3.38 ± 0.14 | -1.44 ± 0.1
93 | UUGUAGCAAUAUUACGCGAA | -1.02 ± 0.21 | -1.73 ± 0.28
94 | UAAUAGCAAUAUUACGGAUU | -2.69 ± 0.36 | -1.02 ± 0.28
95 | CUAAAGCAAUAUUACGAAAA | -3.34 ± 0.41 | -2.19 ± 0.35
96 | GCACAGCAAUAUUACGGGUG | -4.37 ± 0.23 | -2.62 ± 0.16
97 | AAAUAGCAAUAUUACGCUGU | -3.27 ± 0.14 | -1.89 ± 0.1
98 | GCAUAGCAAUAUUACGACAA | -2.27 ± 0.19 | -0.595 ± 0.13
